From patent publication US20160166634A1 (Novartis, published 2016)

Biological target: human APJ receptor (hAPJ) (human) (UniProt P35414)
Assay: cell-based or functional assay

Chain of human APJ receptor (hAPJ) (human) (P35414 whole entry): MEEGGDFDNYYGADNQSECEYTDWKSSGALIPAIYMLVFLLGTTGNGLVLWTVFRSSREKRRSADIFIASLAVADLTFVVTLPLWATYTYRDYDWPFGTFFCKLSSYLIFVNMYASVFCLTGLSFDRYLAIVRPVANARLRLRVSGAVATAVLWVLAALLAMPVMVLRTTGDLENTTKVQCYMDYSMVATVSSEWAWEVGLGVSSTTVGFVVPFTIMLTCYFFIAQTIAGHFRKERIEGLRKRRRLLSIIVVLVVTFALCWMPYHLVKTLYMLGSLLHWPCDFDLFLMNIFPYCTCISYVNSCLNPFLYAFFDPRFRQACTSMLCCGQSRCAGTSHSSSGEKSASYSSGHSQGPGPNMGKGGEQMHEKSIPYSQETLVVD

Row | hAPJ Ca2+ Flux EC50 | Substance
1 | 47.2 nM | Example 1: Albumin-MPA-O2Oc-O2Oc-O2Oc-O2Oc-Q-R-P-R-L-C*-H-F-G-P-Nle-C*-f-OH (from UniProt P02768 25-609)
2 | 92.4 nM | Example 2: Albumin-TPA-O2Oc-O2Oc-O2Oc-O2Oc-Q-R-P-R-L-C*-H-F-G-P-Nle-C*-f-OH (from UniProt P02768 25-609)
3 | 52 nM | Example 3: Albumin-MPA-NHCH2CH2CH2-OCH2CH2OCH2CH2O-CH2CH2CH2NH-C(O)CH2CH2C=O-A-R-P-R-L-S-H-K-G-P-Nle-P-F-OH (from UniProt P02768 25-609)
